The series has as its target GST-KRT19 fusion protein (UniProt P08727).
UniProt P08727, sequence (P08727 whole entry, the tested form may be a part): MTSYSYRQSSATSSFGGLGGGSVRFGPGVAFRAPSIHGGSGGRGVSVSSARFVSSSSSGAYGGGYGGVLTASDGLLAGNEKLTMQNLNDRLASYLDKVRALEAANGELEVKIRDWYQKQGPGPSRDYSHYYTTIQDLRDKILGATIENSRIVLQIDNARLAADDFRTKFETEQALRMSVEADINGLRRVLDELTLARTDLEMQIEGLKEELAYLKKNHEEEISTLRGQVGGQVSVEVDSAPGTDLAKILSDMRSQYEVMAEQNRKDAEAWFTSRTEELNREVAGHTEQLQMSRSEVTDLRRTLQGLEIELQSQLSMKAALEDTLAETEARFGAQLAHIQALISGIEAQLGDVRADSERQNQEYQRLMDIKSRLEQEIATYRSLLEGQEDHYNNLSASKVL

With HA-Akt protein, the “in vitro kinase assay ([gamma-32P]ATP, SDS-PAGE, autoradiography)” value was “Akt mediated Ser35 phosphorylation of KRT”.

For the origin of these results see patent US20140242069.
